B1: Frutalin produced in E. coli cleaved from TrxFTL (cFTL) (natural protein, Artocarpus incisa)
chain: GAMGNQQSGKSQTVIVGPWGAKVSTSSNGKAFDDGAFTGIREINLSYNKETAIGDFQVVYDLNGSPYVGQNHKSFITGFTPVKISLDFPSEYIMEVSGYTGNVSGYVVVRSLTFKTNKKTYGPYGVTSGTPFNLPIENGLIVGFKGSIGYWLDYFSMYLSL
notes: residues left after TEV cleavage (GA) and MG from the cloning restriction site; not glycosylated; 17421.61 Da by calculation; also called cleaved FTL; FTL cleaved from TrxFTL; source: E. coli BL21(DE3) (NZYBL21), purified (IMAC, TEV digestion, reverse IMAC on Ni-NTA); not shown: TrxA, N-terminal, cleaved; His6, N-terminal, cleaved
B2: Frutalin produced in E. coli in fusion with TrxA (TrxFTL) (natural protein, Artocarpus incisa)
chain: SSGENLYFQGAMGNQQSGKSQTVIVGPWGAKVSTSSNGKAFDDGAFTGIREINLSYNKETAIGDFQVVYDLNGSPYVGQNHKSFITGFTPVKISLDFPSEYIMEVSGYTGNVSGYVVVRSLTFKTNKKTYGPYGVTSGTPFNLPIENGLIVGFKGSIGYWLDYFSMYLSL
notes: 13 extra amino acids between the 6xHistag and frutalin; not glycosylated; Vector pETM20; also called FTL in fusion with TrxA; source: E. coli BL21(DE3) (NZYBL21), purified (IMAC, Nickel HisTrap); not shown: TrxA, N-terminal, kept; His6, internal (between TrxA and the TEV recognition site), kept

Biological target: the molecule itself
Experiment: dynamic light scattering; protein at 0.8-1.0 mg/mL in phosphate buffer, room temperature, filtered through 0.45 um; size distribution by intensity; measured diameter compared with that expected from the theoretical MW of a tetramer

Protein | stoichiometry N
B1 | 4
B2 | 4

From PMC8401544, “Cytotoxicity of Frutalin on Distinct Cancer Cells Is Independent of Its Glycosylation” (Molecules, 2021)
